Data taken from doi:10.1101/276733 (bioRxiv, 2018).

Molecular target: the molecule itself
Test: cryo-EM structure

B1: Arf1-GTP (natural protein)
chain: not shown
Which “stoichiometry N” value does the source give for B1 here?
Its value is 3.
